Results: PMC7948967, “The heme-binding protein PhuS transcriptionally regulates the Pseudomonas aeruginosa tandem sRNA prrF1,F2 locus”

Key:
Fur = target: T1, Fur (Pseudomonas aeruginosa, UniProt Q03456 1-134); test: fluorescence anisotropy; 0.1 mM MnSO4; bis-Tris borate pH 7.5, 40 mM KCl; FA: 20 mM Tris-HCl pH 8.0, 100 mM NaCl, 0.05 mg/ml BSA, 10 nM DNA (Fur: 10 mM bis-Tris borate pH 7.5, 40 mM KCl, 0.1 mM MnSO4, 0.1 mg/ml BSA, 10% glycerol), temperature not stated; EMSA: 100 mM Tris pH 8.0, 500 mM NaCl, 10% glycerol, 10 ng/ml salmon sperm DNA, 37 C, 30 pM DNA; conditions: protein: recombinant; tags: GST removed with thrombin (pGEX-2T); chain copies: 2; label: 5'-6FAM; blunt
T1 sequence: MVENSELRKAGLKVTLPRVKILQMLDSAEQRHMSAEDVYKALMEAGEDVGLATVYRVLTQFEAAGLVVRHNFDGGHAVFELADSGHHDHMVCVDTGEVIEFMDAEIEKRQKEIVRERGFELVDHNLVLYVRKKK

PhuS [1] = target: T2, PhuS (Pseudomonas aeruginosa PAO1, UniProt O68880 1-354); test: fluorescence anisotropy; apo-PhuS; much smaller anisotropy change; FA: 20 mM Tris-HCl pH 8.0, 100 mM NaCl, 0.05 mg/ml BSA, 10 nM DNA (Fur: 10 mM bis-Tris borate pH 7.5, 40 mM KCl, 0.1 mM MnSO4, 0.1 mg/ml BSA, 10% glycerol), temperature not stated; EMSA: 100 mM Tris pH 8.0, 500 mM NaCl, 10% glycerol, 10 ng/ml salmon sperm DNA, 37 C, 30 pM DNA; conditions: protein: recombinant; tags: none; label: 5'-6FAM; blunt
PhuS H212R = PhuS H212R (Pseudomonas aeruginosa PAO1, UniProt O68880 1-354, H212R); test: fluorescence anisotropy; apo-PhuS H212R; FA: 20 mM Tris-HCl pH 8.0, 100 mM NaCl, 0.05 mg/ml BSA, 10 nM DNA (Fur: 10 mM bis-Tris borate pH 7.5, 40 mM KCl, 0.1 mM MnSO4, 0.1 mg/ml BSA, 10% glycerol), temperature not stated; EMSA: 100 mM Tris pH 8.0, 500 mM NaCl, 10% glycerol, 10 ng/ml salmon sperm DNA, 37 C, 30 pM DNA; conditions: protein: recombinant; tags: none; label: 5'-6FAM; blunt
PhuS [2] = target: T2, PhuS; test: fluorescence anisotropy; apo-PhuS; FA: 20 mM Tris-HCl pH 8.0, 100 mM NaCl, 0.05 mg/ml BSA, 10 nM DNA (Fur: 10 mM bis-Tris borate pH 7.5, 40 mM KCl, 0.1 mM MnSO4, 0.1 mg/ml BSA, 10% glycerol), temperature not stated; EMSA: 100 mM Tris pH 8.0, 500 mM NaCl, 10% glycerol, 10 ng/ml salmon sperm DNA, 37 C, 30 pM DNA; conditions: protein: recombinant; tags: none; label: 5'-6FAM; blunt

B1: prrF1-30 (dsDNA)
DNA 1: GACATGGAAATGAGAATCATTATTATGTCA
DNA 2: TGACATAATAATGATTCTCATTTCCATGTC
In the case of B1, the Kd (Fur) is reported as 50 ± 10 nM and the Kd (PhuS [1]) is reported as > 2000 nM.

B2: prrF1-50 (FAM) (dsDNA)
DNA 1: AGCAGAAAAGTTTGGCGAAAGCGTTTGACATGGAAATGAGAATCATTATT
DNA 2: AATAATGATTCTCATTTCCATGTCAAACGCTTTCGCCAAACTTTTCTGCT
B2 gave a Kd (PhuS H212R) of 90 ± 30 nM and a Kd (PhuS [2]) of 64 ± 10 nM.

B3: prrF1-50 (No Fur) (dsDNA)
DNA 1: ATTCCAGAGGGCTCGCGACTAGCTAGCAGAAAAGTTTGGCGAAAGCGTTT
DNA 2: AAACGCTTTCGCCAAACTTTTCTGCTAGCTAGTCGCGAGCCCTCTGGAAT
B3: no binding (PhuS [2]).

B4: prrF2-50 (Fur) (dsDNA)
DNA 1: ATGAGAACCGGCTTGACCTGATAATGAGAATAGTTATTATTACACCAACT
DNA 2: AGTTGGTGTAATAATAACTATTCTCATTATCAGGTCAAGCCGGTTCTCAT
B4: no binding (PhuS [2]).
